Measured values taken from article PMC7299955, “GTP hydrolysis by Synechocystis IM30 does not decisively affect its membrane remodeling activity” (Scientific Reports, 2020).
Where a chain is given by its changes, count along the chain named. Names may count otherwise.

Legend:
SynIM30 WT [1] = molecular target: T1, SynIM30 WT (Synechocystis sp. PCC 6803, UniProt Q55707); experiment: thermal denaturation, CD at […] nm; format: binding; conditions: 0.5 mM GTP with or without 2.5 mM Mg2+; 3.2 µM protein
T1 construct: gene vipp1; full length, N-terminal His-tag kept (pRSET IM30 WT), E. coli BL21(DE3), Ni-NTA; high molecular mass homo-oligomeric rings
T1 sequence (Q55707 1-267): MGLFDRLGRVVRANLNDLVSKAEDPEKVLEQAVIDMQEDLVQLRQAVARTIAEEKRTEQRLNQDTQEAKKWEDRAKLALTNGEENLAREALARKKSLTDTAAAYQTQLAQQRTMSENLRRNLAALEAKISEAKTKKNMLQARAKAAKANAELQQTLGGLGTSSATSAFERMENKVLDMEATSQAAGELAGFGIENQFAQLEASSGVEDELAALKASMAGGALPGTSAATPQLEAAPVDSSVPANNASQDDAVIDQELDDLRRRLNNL

SynIM30 WT [2] = molecular target: T1, SynIM30 WT; experiment: malachite green Pi release; format: biochemical; conditions: 0.5 mM GMP-PCP, GTP varied, 2.5 mM Mg2+, 37 °C; competitive or allosteric not resolved
Text: malachite green Pi release on SynIM30 WT | […]

[3] = substrate: Nc1nc2c(ncn2[C@@H]2O[C@H](COP(=O)(O)OP(=O)(O)OP(=O)(O)O)[C@@H](O)[C@H]2O)c(=O)[nH]1; experiment: malachite green Pi release, Hill fit; format: biochemical, Synechocystis sp. PCC 6803; conditions: 2.5 mM Mg2+, 20 mM HEPES, 37 °C, 30 min, Hill coefficient 1.29 ± 0.09
[4] = molecular target: the molecule itself; experiment: SEC; Superose 12 10/300 GL column, 20 mM HEPES pH 7.6, 8 °C, elution followed at 280 nm; calibrated against standards of known size

Nc1nc2c(ncn2[C@@H]2O[C@H](COP(=O)(O)OP(=O)(O)OP(=O)(O)O)[C@@H](O)[C@H]2O)c(=O)[nH]1 [GTP] was tested, and the Tm (SynIM30 WT [1]) was “This suggests that GTP binding affects the structure and stability of IM30 to some extent”.

Nc1nc2c(ncn2[C@@H]2O[C@H](COP(=O)(O)OP(=O)(O)CP(=O)(O)O)[C@@H](O)[C@H]2O)c(=O)[nH]1 [GMP-PCP] was tested, and the “malachite green Pi release” value (SynIM30 WT [2]) was “Addition of the non-hydrolyzable GTP analog GMP-PCP”.

B1: Synechocystis IM30 wild type (inner membrane-associated protein of 30 kDa) (natural protein, Synechocystis sp. PCC 6803, UniProt Q55707 1-267, looked up)
chain: T1 sequence (Q55707 1-267)
notes: IM30 (Vipp1) of the cyanobacterium Synechocystis sp; PCC 6803; Forms high molecular mass homo-oligomers (>300 kDa by SEC); the number of chains in them is not determined here; also called SynIM30; SynIM30 WT; source: E. coli BL21 (DE3), purified (Ni-NTA, Sephadex G25 buffer exchange)
B1 was tested, and the Km [3] was 650 ± 140 µM, the kcat [3] was 0.036 ± 0.0055 s⁻¹ and the binding result [4] was “binds”.

B2: SynIM30 FERM_EE (E83A, E84A, F168A, E169A, R170A, M171A) (natural protein, Synechocystis sp. PCC 6803, UniProt Q55707 1-267, looked up)
chain: T1 sequence (Q55707 1-267) with E83A, E84A, F168A, E169A, R170A, M171A
notes: IM30 (Vipp1) of Synechocystis sp; PCC 6803 with six mutations brought into the plasmid of IM30 WT; mainly tetramers in buffers of low ionic strength; also called tetrameric SynIM30 variant; source: E. coli BL21 (DE3), purified (Ni-NTA, Sephadex G25 buffer exchange)
B2 was tested, and the “stoichiometry N” value [4] was 4.
